The values that follow come from patent US20220356235A1 (STICHTING SANQUIN BLOEDVOORZIENING, published 2022).

As usually defined, the Kd is the free concentration of one partner at which half of the binding sites on the other are occupied at equilibrium, for simple one-to-one binding. The koff is the first-order rate constant of dissociation. By kon is commonly meant the rate constant with which the complex forms.

To fix the notation:
B3: human factor H, full length (other, UniProt P08603 19-1231, looked up)
chain: EDCNELPPRRNTEILTGSWSDQTYPEGTQAIYKCRPGYRSLGNVIMVCRKGEWVALNPLRKCQKRPCGHPGDTPFGTFTLTGGNVFEYGVKAVYTCNEGYQLLGEINYRECDTDGWTNDIPICEVVKCLPVTAPENGKIVSSAMEPDREYHFGQAVRFVCNSGYKIEGDEEMHCSDDGFWSKEKPKCVEISCKSPDVINGSPISQKIIYKENERFQYKCNMGYEYSERGDAVCTESGWRPLPSCEEKSCDNPYIPNGDYSPLRIKHRTGDEITYQCRNGFYPATRGNTAKCTSTGWIPAPRCTLKPCDYPDIKHGGLYHENMRRPYFPVAVGKYYSYYCDEHFETPSGSYWDHIHCTQDGWSPAVPCLRKCYFPYLENGYNQNYGRKFVQGKSIDVACHPGYALPKAQTTVTCMENGWSPTPRCIRVKTCSKSSIDIENGFISESQYTYALKEKAKYQCKLGYVTADGETSGSITCGKDGWSAQPTCIKSCDIPVFMNARTKNDFTWFKLNDTLDYECHDGYESNTGSTTGSIVCGYNGWSDLPICYERECELPKIDVHLVPDRKKDQYKVGEVLKFSCKPGFTIVGPNSVQCYHFGLSPDLPICKEQVQSCGPPPELLNGNVKEKTKEEYGHSEVVEYYCNPRFLMKGPNKIQCVDGEWTTLPVCIVEESTCGDIPELEHGWAQLSSPPYYYGDSVEFNCSESFTMIGHRSITCIHGVWTQLPQCVAIDKLKKCKSSNLIILEEHLKNKKEFDHNSNIRYRCRGKEGWIHTVCINGRWDPEVNCSMAQIQLCPPPPQIPNSHNMTTTLNYRDGEKVSVLCQENYLIQEGEEITCKDGRWQSIPLCVEKIPCSQPPQIEHGTINSSRSSQESYAHGTKLSYTCEGGFRISEENETTCYMGKWSSPPQCEGLPCKSPPEISHGVVAHMSDSYQYGEEVTYKCFEGFGIDGPAIAKCLGEKWSHPPSCIKTDCLSLPSFENAIPMGEKKDVYKAGEQVTYTCATYYKMDGASNVTCINSRWTGRPTCRDTSCVNPPTVQNAYIVSRQMSKYPSGERVRYQCRSPYEMFGDEEVMCLNGNWTEPPQCKDSTGKCGPPPPIDNGDITSFPLSVYAPASSVEYQCQNLYQLEGNKRITCRNGQWSEPPKCLHPCVISREIMENYNIALRWTAKQKLYSRTGESVEFVCKRGYRLSSRSHTLRTTCWDGKLEYPTCAKR
notes: mature; In the serum assays (C3b deposition, hemolysis) the FH is that of normal human serum; also called FH; full length FH

Experiment [1] addresses B3. Kind of experiment: cell-based or functional assay.
The target of experiment [2] is T1, recombinant human FH fragment CCP 19-20 (human, UniProt P08603 1107-1231).
T1 construct: domain: CCP 19-20
T1 sequence (looked up): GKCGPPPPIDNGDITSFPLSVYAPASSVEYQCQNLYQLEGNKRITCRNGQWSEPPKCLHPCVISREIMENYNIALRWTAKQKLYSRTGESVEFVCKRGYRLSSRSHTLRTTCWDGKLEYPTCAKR
Description: competition ELISA: mAb captured on RM-19 coated plate, FH-bt mixed with unlabelled CCP 19-20. The protocol: (§1) The location of the epitope of anti-FHR-1 mAbs was determined using recombinant human FH fragments composed of multiple CCP domains (15-18, 15-19, 18-20 or 19-20). In short, anti-FHR-1 mAbs were captured on a RM-19 coated microtiterplate to assure optimal binding conformation. Next, biotinylated FH, mixed with a 100-fold higher concentration of the indicated unlabeled recombinant FH-fragments, was incubated on the plate for 1 hour. Binding of biotinylated FH was determined by incubation with 0.01% (v/v) streptavidin conjugated with poly-HRP, in HPE for 30 min. The ELISA was further developed as described above. To determine whether the anti-FHR-1 mAbs competed with anti-FH.07 for the binding of FH, a similar set-up was used. In short, mAbs were directly coated to the plate and binding of biotinylated FH (FH-bt) in the absence or presence of a 10-fold higher concentration of indicated mAbs was assessed by ELISA as described above.
(ELISA stands for enzyme-linked immunosorbent assay.)

The target in experiment [3] is B3. Kind of experiment: SPR (Biacore T200), mAb captured on ProtA or ProtG chip, full length FH flowed over, 1:1 model. The protocol:
(§2) Surface plasmon resonance (SPR) experiments were performed using a BiaCore T200 (GE Healthcare) and CM5 sensor chips (GE Healthcare) in accordance with the manufacturer's instructions. In short, to determine its affinity, anti-FH.07, anti-FHR-1 3B4 or anti-FHR-1 8E4 were captured onto a ProtA or ProtG coupled chip and either full length FH or a fragment of FH comprising domain 18-20 was flown over the captured moAB at decreasing concentrations.
On the technique in general: SPR reads the build-up and loss of mass on a sensor chip optically.

Experiment [4] deals with T2, recombinant human FH fragment CCP 18-20 (human, UniProt P08603 1046-1231).
T2 construct: domain: CCP 18-20; also called fragment of FH comprised of domain 18-20
T2 sequence (looked up): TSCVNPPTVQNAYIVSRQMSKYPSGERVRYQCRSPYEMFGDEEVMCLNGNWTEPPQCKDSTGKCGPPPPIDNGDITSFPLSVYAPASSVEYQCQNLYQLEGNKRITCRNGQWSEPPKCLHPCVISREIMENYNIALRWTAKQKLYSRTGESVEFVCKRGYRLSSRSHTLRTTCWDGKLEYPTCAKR
Kind of experiment: SPR (Biacore T200), mAb captured on ProtA or ProtG chip, FH CCP18-20 flowed over, 1:1 model. As to the method:
as §2

Experiment [5] has as its target T3, C3b (UniProt P01024 23-667; P01024 749-1663, limits assumed).
T3 construct: C3b has two chains (beta and alpha') derived from C3; also called purified C3b (Complement Technologies)
Description: SPR (Biacore T200), C3b amine-coupled to CM5 chip, FH alone injected (10-0.01953 µM), 37 °C, equilibrium analysis; FH alone, no Fab′. As to the method:
Binding of FH to C3b in the presence of the anti-FH moAbs was determined by surface plasmon resonance using a Biacore T200 instrument (GE Healthcare, Little Chalfont, UK). Purified C3b (Complement Technologies) was immobilized onto a flow cell of a CM5 Biacore Sensor Chip (GE Healthcare) using standard amine coupling. The remaining flow cell was used as reference surface and prepared by performing a coupling reaction without the addition of any protein. A response of 2000 response units (RUs) was obtained after coupling with C3b. SPR experiments were performed at 37° C. using a flow rate of 10 μl/min and in phosphate buffered saline pH 7.4 (PBS, Orphi Farma) supplemented with 0.01% (w/v) Tween-20 (Merck) (PBS-T).
To determine the effect of the antibodies without interference of possible cross-linking via the moAb, recombinantly produced Fab′ fragments of the moAbs were used. Fab′ fragments were mixed with plasma purified FH (pdFH). […] Each Fab′ fragment was also injected without addition of FH to determine any interactions of the Fab′ fragments with the surfaces. The pdFH injection was followed by a dissociation of 60 seconds and surface was regenerated between each cycle by a single injection of 1 M NaCl (Merck).
Data was analyzed using Scrubber 2 (Biologic Software) affinities were determined by equilibrium analysis.

For experiment [6], the target named is B3. Kind of experiment: SPR, mAb captured on a ProtA or ProtG chip, full length FH flowed over, 1:1 binding model. As to the method: as §2
Experiment [7] concerns the target T4, recombinant human FH fragment CCP 15-19 (human, UniProt P08603 868-1165).
T4 construct: domain: CCP 15-19
T4 sequence (looked up): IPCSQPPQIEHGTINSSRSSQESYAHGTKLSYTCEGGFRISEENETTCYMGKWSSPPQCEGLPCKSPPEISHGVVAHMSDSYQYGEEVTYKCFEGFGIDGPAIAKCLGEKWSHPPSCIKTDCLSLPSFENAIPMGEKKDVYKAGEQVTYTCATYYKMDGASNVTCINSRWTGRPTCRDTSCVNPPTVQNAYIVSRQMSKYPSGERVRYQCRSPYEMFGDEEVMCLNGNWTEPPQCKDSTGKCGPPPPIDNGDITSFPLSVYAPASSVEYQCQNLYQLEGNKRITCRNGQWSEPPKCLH
Kind of experiment: competition ELISA: mAb captured on RM-19 coated plate, FH-bt mixed with 100-fold excess of unlabelled CCP 15-19. The protocol:
as §1

The target in experiment [8] is T5, recombinant human FH fragment CCP 15-18 (human, UniProt P08603 868-1104).
T5 construct: domain: CCP 15-18
T5 sequence (looked up): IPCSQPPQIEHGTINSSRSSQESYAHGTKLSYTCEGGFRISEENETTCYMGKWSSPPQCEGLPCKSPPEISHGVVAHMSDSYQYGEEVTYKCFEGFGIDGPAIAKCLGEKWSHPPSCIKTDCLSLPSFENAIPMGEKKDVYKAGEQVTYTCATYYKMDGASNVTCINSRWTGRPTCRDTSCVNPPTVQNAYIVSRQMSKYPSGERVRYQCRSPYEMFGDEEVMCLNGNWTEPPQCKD
Kind of experiment: competition ELISA: mAb captured on RM-19 coated plate, FH-bt mixed with 100-fold excess of unlabelled CCP 15-18. As to the method: as §1

In experiment [9] the target is B3. Description: competition ELISA: mAb captured on RM-19 coated plate, FH-bt mixed with excess unlabelled full length FH; % of FH-bt binding without competitor. The protocol:
as §1

Experiment [10] addresses T2, recombinant human FH fragment CCP 18-20. Kind of experiment: competition ELISA: mAb captured on RM-19 coated plate, FH-bt mixed with 100-fold excess of unlabelled CCP 18-20. The protocol:
as §1

T3 sequence (P01024 23-667 limits assumed, chain 1 of 2): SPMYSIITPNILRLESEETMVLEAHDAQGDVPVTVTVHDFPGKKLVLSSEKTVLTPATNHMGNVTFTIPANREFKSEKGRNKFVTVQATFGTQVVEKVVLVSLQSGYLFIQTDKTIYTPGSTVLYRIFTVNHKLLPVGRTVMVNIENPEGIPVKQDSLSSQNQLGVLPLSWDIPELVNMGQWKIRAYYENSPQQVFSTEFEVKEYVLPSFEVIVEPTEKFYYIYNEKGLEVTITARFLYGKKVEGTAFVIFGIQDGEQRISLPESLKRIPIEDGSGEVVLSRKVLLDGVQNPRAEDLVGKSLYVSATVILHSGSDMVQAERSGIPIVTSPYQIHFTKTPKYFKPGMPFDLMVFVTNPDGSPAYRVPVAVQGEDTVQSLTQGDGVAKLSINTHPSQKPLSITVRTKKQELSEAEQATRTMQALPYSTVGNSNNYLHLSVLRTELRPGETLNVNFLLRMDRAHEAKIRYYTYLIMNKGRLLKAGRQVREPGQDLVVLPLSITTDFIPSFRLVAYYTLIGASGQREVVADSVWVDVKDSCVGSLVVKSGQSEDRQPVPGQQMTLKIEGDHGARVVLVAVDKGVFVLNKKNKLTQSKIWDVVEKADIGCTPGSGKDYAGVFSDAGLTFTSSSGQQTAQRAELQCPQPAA
T3 sequence (P01024 749-1663 limits assumed, chain 2 of 2): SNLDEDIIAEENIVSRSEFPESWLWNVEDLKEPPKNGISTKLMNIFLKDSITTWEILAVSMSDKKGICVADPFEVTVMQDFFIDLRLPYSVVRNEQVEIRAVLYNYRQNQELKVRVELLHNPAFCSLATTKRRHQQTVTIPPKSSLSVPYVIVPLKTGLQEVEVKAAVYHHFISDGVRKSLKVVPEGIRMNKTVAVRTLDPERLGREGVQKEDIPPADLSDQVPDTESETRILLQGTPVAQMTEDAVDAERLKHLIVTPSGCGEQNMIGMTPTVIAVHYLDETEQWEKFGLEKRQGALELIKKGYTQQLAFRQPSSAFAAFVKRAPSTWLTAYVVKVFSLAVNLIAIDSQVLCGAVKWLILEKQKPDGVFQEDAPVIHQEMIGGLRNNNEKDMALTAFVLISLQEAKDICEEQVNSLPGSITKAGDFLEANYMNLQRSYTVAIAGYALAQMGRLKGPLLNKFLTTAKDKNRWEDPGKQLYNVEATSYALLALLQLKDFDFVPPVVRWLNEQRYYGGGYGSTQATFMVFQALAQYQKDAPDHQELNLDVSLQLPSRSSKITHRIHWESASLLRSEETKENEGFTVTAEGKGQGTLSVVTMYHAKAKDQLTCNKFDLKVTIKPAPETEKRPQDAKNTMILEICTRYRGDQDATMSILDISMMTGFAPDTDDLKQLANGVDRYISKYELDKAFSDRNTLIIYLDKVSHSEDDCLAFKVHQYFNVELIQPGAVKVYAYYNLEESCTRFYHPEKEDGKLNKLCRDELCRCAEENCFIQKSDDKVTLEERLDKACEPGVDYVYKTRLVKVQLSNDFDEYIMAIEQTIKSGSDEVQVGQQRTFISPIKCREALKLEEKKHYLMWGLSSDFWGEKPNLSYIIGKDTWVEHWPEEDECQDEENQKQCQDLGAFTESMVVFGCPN

B1: anti-FHR-1.11E1 (antibody, V domains shown)
VH: QVQLKQSGPGLVQPSQSLSITCTVSGFSLTNYGVHWVRQPPGKGLEWLGVIWSGGNTDYNAAFISRLSISKDNSKSQVFFKMNSLQADDTAIYYCAKNGDYGYTMDYWGQGTSVTVSS
VL: DVVMTQTPLSLPVSLGDQASISCRSSQSLVHSNGNTYLHWYLQKPGQSPKLLIYKLSNRFSGVPDRFSGSGSGTDFTLKISRVEAEDLGVYFCSQSTHVPFTFGSGTKLEIK
notes: Mouse monoclonal from a hybridoma, raised against recombinant human FHR-1
For B1, the “IC50 (nM), LPS C3b dep. assay” value in experiment [1] worked out at 25 nM. The binding result in [2] was “no binding”.

B2: anti-FH.07 (antibody, V domains shown)
VH: QVQLQQSGPGLVQPSQSLSITCTVSDFSLARYGVHWIRQSPGKGLEWLGVIWSGGTADYNAAFISRLNINKDNSKSQVFFKMNSLQANDTAIYYCARNFGNYAVDYWGQGTS
VL: QIVLSQSPTFLSASPGEKVTVTCRASSSVKYMHWYQQKPGASPKPWIFATSNLASGVPARFSGSGSGTSYSLTISRVEAEDAATYYCQQWSIIPPTFGNGTKLELK
Regarding B2, in experiment [3], the equilibrium dissociation constant (Kd) was 29.7 nM, the koff is 0.000181 s⁻¹ and the on-rate constant (kon) came to 6090 M⁻¹ s⁻¹. Besides, in experiment [1], the “IC50 (nM), Hemolytic assay” value was determined as 153 nM and the “IC50 (nM), LPS C3b dep. assay” value turned out to be 38.8 nM. Besides, in experiment [2], the binding result is “no binding”. Further, in [4], the Kd amounted to 0.32 nM, the off-rate constant (koff) was found to be 0.00027 s⁻¹ and the kon was 833000 M⁻¹ s⁻¹.

As for B3, the Kd in [5] is 6000 nM.

B4: anti-FHR-1.3B4 (antibody, V domains shown)
VH: QVQLRQSGPGLVQPSQSLSITCTVSGFSLTNYGVYWVRQSPGKGLEWLGVIWSGGTTDYSAAFISRLSISKDNSKSQVFFKMNSLQADDTAIYYCARNFGNYAMDYWGQGTSVTVSS
VL: QIVLSQSPTILSASPGEKVTMTCRASSSVTYMHWYQQKPGSSPKPWIYATSNLASGVPARFSGSGSGTSYSLTISRVEAEDAATYYCQQRSSSNPLTFGAGTKLELK
notes: Mouse monoclonal from a hybridoma, raised against recombinant human FHR-1; also called aFHR-1 3B4
For the molecule B4, in experiment [3], the dissociation constant (Kd) stood at 5.8 nM, the dissociation rate constant (koff) was determined as 9.1e-05 s⁻¹ and the kon came to 15800 M⁻¹ s⁻¹. Moreover, in experiment [1], the “IC50 (nM), Hemolytic assay” value was 94 nM and the “IC50 (nM), LPS C3b dep. assay” value stood at 38.4 nM. Further, the affinity in experiment [6], expressed as Kd, was 5.77 nM. For the same molecule, the binding result in experiment [2] is “no binding”. In [4], the Kd was 0.00544 nM, the koff is 1.27e-05 s⁻¹ and the association rate constant (kon) came to 2.39e+06 M⁻¹ s⁻¹.

B5: FHR-1.14C4 (antibody, V domains shown)
VH: EVQLQQSGPELEKPGASVKISCKASGYSFTGYNMHWVKQSNGTSLEWIGKIDPYYGDTSYNQRFKGKATLTVDKSSSTAYMQLKSLTSEDSAVYYCARAFYRDYALDYWGRGTSVTVSS
VL: DIVMTQSPSSLTVTAGEKVTMSCKSSQSLFNSGNQKNYLTWYQQKPGQPPKLLIYWASTRESGVPDRFTGSGSGTDFTLTISSVQAEDLAVYYCQNDYSYPLTFGAGTKLELK
notes: as for B1
As to B5, the binding result in [7] is “binds”; in experiment [8], “binds”; in experiment [9], “binds”; in [10], “binds”; in experiment [2] it was “no binding”.
